In assay [1] the target is RadA from Streptococcus pneumoniae (strep-tagged, for cryoEM) (Streptococcus pneumoniae) (UniProt Q8DRP0). Description: cryo-EM structure.
The target of assay [2] is RadA R301A mutant from Streptococcus pneumoniae (for biochemical assays) (Streptococcus pneumoniae (R800 derivative strain)) (UniProt Q8DRP0).
The target in assay [3] is ComM from Legionella pneumophila (C-terminal His6-tag) (Legionella pneumophila Paris) (UniProt Q5ZXZ0). Description: cryo-EM structure.
Assay [4] shares this target. Description: cryo-EM structure. The source holds these as a separate data set.

Where two headings read alike, the source gives them in different places.

The stoichiometry N is the number of molecules, sites or subunits per partner or assembly. For “RadA from Streptococcus pneumoniae (strep-tagged, for cryoEM) (from UniProt Q8DRP0 1-420) (enzyme)”, the stoichiometry N in assay [1] turned out to be 6.
“RadA R301A mutant from Streptococcus pneumoniae (for biochemical assays) (from UniProt Q8DRP0 2-419) (enzyme)”: the stoichiometry N in assay [2] stood at 6.
With “ComM from Legionella pneumophila (C-terminal His6-tag) (from UniProt Q5ZXZ0 1-503) (enzyme)”, the stoichiometry N in assay [3] is 12; in assay [4], 6.
